This series concerns the molecule itself. Nature of the series: cryo-EM structure; amyloid fibrils polymerised from monomer at 4°C with seeds (5% mol/mol) in 5 mM KPi, 150 mM NaCl, pH 7.4, without agitation; third-generation (G3) fibrils.

B1: Sup35NM S17R (domain or fragment, yeast, UniProt P05453 1-253, looked up)
chain: MSDSNQGNNQQNYQQYRQNGNQQQGNNRYQGYQAYNAQAQPAGGYYQNYQGYSGYQQGGYQQYNPDAGYQQQYNPQGGYQQYNPQGGYQQQFNPQGGRGNYKNFNYNNNLQGYQAGFQPQSQGMSLNDFQKQQKQAAPKPKKTLKLVSSSGIKLANATKKVGTKPAESDKKEEEKSAETKEPTKEPTKVEEPVKKEEKPVQTEEKTEEKSELPKVEDLKISESTHNTNNANVTSADALIKEQEEEVDDEVVND
notes: Sup35, yeast translation termination factor; NM domain = N-terminal prion domain (N or PrD) plus the polar M region (M124-D253), with S17R; In the fibril, many copies are stacked along the axis; also called S17R mutant; S17R4 (fibrils formed at 4°C); not shown: 7x histidine, C-terminal, kept
For the protein B1, the binding result is “binds”.
